PMC7863765

Columns and labels:
[1] = biological target: polyphosphorylated full-length SARS-CoV-2 nucleocapsid protein pN.1-419 (SARS-CoV-2) (UniProt P0DTC9); test: SEC
[2] = biological target: polyphosphorylated full-length SARS-CoV-2 nucleocapsid protein pN.1-419 (SARS-CoV-2) (UniProt P0DTC9); test: SEC-MALS

## untagged full-length human 14-3-3γ (from UniProt P61981 1-247) (natural protein)
[1]
  Kd: 1500 nM
  stoichiometry N (14-3-3γ chains per pN.1-419 chain (2:2)): 1
[2]
  stoichiometry N (14-3-3γ chains per pN.1-419 chain (2:2)): 1
